Experimental data: the supplement of paper PMC10567573
± gives the standard deviation.

Assay: protein stability index of a GFP-peptide fusion (GPS, HEK-293T) (PSI 1-6); higher = more stable
[1] = treatment: DMSO, c terminus: a fixed tail appended
[2] = treatment: MLN4924 1 uM, 8 h, c terminus: a fixed tail appended
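Note: 24-mer peptide tiles fused after GFP, lentivirally expressed, FACS-sorted into six equal bins by GFP/DsRed ratio, decoded by Illumina sequencing, PSI is the read-weighted mean bin number.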

Sequence | protein stability index [1] | protein stability index [2] | protein stability index (treatment: DMSO, c terminus: native) | protein stability index (treatment: MLN4924 1 uM, 8 h, c terminus: native)
VKMDQKSKHLKEMYQELMEMCHKP [TRIM43] | 3.03 ± 0.15 | 3.13 ± 0.28 | – | –
LQKQGKYSGVGLLDHMVSIYLLI [RNF180] | – | – | 2.31 ± 0.92 | 2.88 ± 0.81
CPGKGAWSIPWKWLFGATAVALGG [FKBP8] | 2.42 ± 0.3 | 2.37 ± 0.25 | – | –
LAIFKSGGIPALVKMLGSPVDSVL [CTNNB1] | 2.28 ± 0.36 | 2.14 ± 0.35 | – | –
LQNQNFPYPVLFHNIFLLGGSSTS [NLN] | 2.15 ± 0.92 | 2.33 ± 0.4 | – | –
PTLDAPGGRALVVRKVPPGYSIKV [SMAD6] | 2.83 ± 0.17 | 3.17 ± 0.19 | – | –
HYYPKLMSIMGNVLRFLPAFVRMK [GFOD1] | 2.41 ± 0.12 | 2.24 ± 0.12 | – | –
EERERKRRKEEEVQQQKLAEERRR [FAF2] | 5.34 ± 0.34 | 5.36 ± 0.25 | – | –
LDPMKNVTCENGLPAVVSCVPGQV [LOXL2] | – | 4.36 ± 0.06 | – | –
GSSSVALPKEASDGTGASQEPPTT [TOR1AIP2] | 5.4 ± 0.43 | 5.6 ± 0.34 | – | –
GPNPSKLIQQFLTLRPDQQLHIFN [CDS2] | 2.16 ± 0.42 | 2.09 ± 0.25 | – | –
KRDDYLEWPEYFMAVAFLSAQRSK [DCTD] | 2.27 ± 0.19 | 2.12 ± 0.35 | – | –
RDEAIYECVASNNVGEISVSTRLT [PTPRD] | 4.03 ± 0.34 | 3.91 ± 0.23 | – | –
PLSVHRPPTSGCLGPVPREDQAEA [TSPAN10] | 5.23 ± 0.17 | 5.1 ± 0.075 | – | –
QALQAKASLTIPLVPETEDDRKLA [YJU2B] | 5.16 ± 0.24 | 5.24 ± 0.11 | – | –
RASALCDRHTKFFEEPEDPSNRSF [PPP2R2B] | 4.38 ± 0.19 | 4.49 ± 0.25 | – | –
GQDTMLKAMFSGRVEVLTDAGGWV [KCTD13] | 2.45 ± 0.26 | 2.36 ± 0.35 | – | –
EWDKNKSAFPFSDKLGELSDKIGS [CLINT1] | 3.57 ± 0.37 | 3.6 ± 0.22 | – | –
RFQDPAAASISDGDCDAREEKQRE [FAM219A] | 5.5 ± 0.4 | 5.46 ± 0.32 | – | –
NIHPQVLLPDQARGEVPWSPELGR [ZNF263] | 4.12 ± 0.16 | 4.34 ± 0.21 | – | –
GKRTPRGRRGWKKFYAVLKGTILY [PSD2] | 2.97 ± 1.6 | 2.61 ± 0.73 | – | –

Sequence | protein stability index [1] | protein stability index [2] | protein stability index (treatment: DMSO, c terminus: native) | protein stability index (treatment: MLN4924 1 uM, 8 h, c terminus: native)
ELARIVLLRHRMNWLGRPSKVLSL [RAB40A] | 2.46 ± 0.73 | 2.43 ± 0.43 | – | –
IYNSHLVVHQRVHSGEKPYKCSDC [ZNF232] | 2.9 ± 0.23 | 3.02 ± 0.28 | – | –
QLDIEEEGRPGAATFHVGGGPAQN [TFE3] | 5.26 ± 0.31 | 5.16 ± 0.32 | – | –
ASQCCGVHVISLHIWELSSIKNSL [PTGFR] | – | 2.31 ± 0.52 | – | –
KIMIIICCVILGIVIASTVGGIFA [STX1A] | 2.04 ± 0.38 | 2.23 ± 0.41 | – | –
REQGPREQEPELSFLKQKEQLEAE [PBXIP1] | 5.5 ± 0.35 | 5.58 ± 0.33 | – | –
KAAEGGLSSPEFSELCIWLGSQIK [FAM98B] | 2.08 ± 0.12 | 2.03 ± 0.4 | – | –
QLLARRMQVDKKRVYLATDDPSLL [FUT8] | 2.61 ± 0.23 | 2.92 ± 0.27 | – | –
TGPQLPESLEDVAMYISQEEWGHQ [ZNF263] | 4.67 ± 0.1 | 4.52 ± 0.29 | – | –
DPPLSQDERTHRSDRPFKCNQCGK [ZNF8] | 5.01 ± 0.24 | 5.11 ± 0.14 | – | –
GQPAPPQLLLGRLFRWPDLQHAVE [SMAD6] | 2.63 ± 0.1 | 2.82 ± 0.39 | – | –
LLPRQPLPLGIKVYEDETKVVHAV [PALM] | 3.47 ± 0.28 | 3.48 ± 0.12 | – | –
SVVLRRARGGAVSARYVLPDEAAR [DUSP5] | 3.56 ± 0.33 | 3.55 ± 0.26 | – | –
KTLYVGNLSRDVTEALILQLFSQI [TIA1] | 2.6 ± 0.51 | 2.73 ± 0.42 | – | –
AQQLLREFEEATGEAGWGAGEGRL [FOXJ1] | 4.74 ± 0.16 | 4.66 ± 0.34 | – | –
TSGGSNIIYVASNHFVWRLIPVPM [VPS39] | 2.44 ± 0.36 | 2.51 ± 0.74 | – | –
VDQTGVSGGVASFICQATGDPRPK [PTPRD] | 4.62 ± 0.17 | 4.81 ± 0.2 | – | –
VGVAGLISPWNLPLYLLTWKIAPA [ALDH8A1] | 2.92 ± 0.97 | 2.88 ± 0.95 | – | –
LSLQKEQLQLKIIEIEDEAEKWQK [TRIM29] | 3.87 ± 0.094 | 3.9 ± 0.43 | – | –
AAATTTTTTSAATATTAPPALDIF [SNAP91] | 4.45 ± 0.24 | 4.61 ± 0.16 | – | –
DAETPPRFTRTPVDQTGVSGGVAS [PTPRD] | 5 ± 0.31 | 4.638 ± 0.016 | – | –

Sequence | protein stability index [1] | protein stability index [2] | protein stability index (treatment: DMSO, c terminus: native) | protein stability index (treatment: MLN4924 1 uM, 8 h, c terminus: native)
GGWETVFRPVSETCTDRSGISTGH [FUT8] | 3.48 ± 0.35 | 3.43 ± 0.22 | – | –
VCEQCLQILYESCPKYKFISCPTC [RNF208] | 4.06 ± 0.29 | 4.09 ± 0.5 | – | –
NSYPRADTGLFSRSKSGSEEVLCD [TRIM29] | 4.62 ± 0.33 | 4.68 ± 0.32 | – | –
LTQWKDSLVSLVLYNMDLSDDHIR [ZER1] | 2.52 ± 0.32 | 2.31 ± 0.097 | – | –
PVRPVSRGCLHSHGLQEGKDLFTQ [CDC25A] | 3.15 ± 0.33 | 3.21 ± 0.13 | – | –
KVDGPRSPSYGRSRSRSRSRSRSR [SRSF1] | 5.27 ± 0.26 | 5.46 ± 0.14 | – | –
SQVCRVAYEIMQTLHPDASANFHS [FUT8] | 2.34 ± 0.36 | 2.27 ± 0.42 | – | –
VVLKLFLSFSGSDVQNKLKESAQC [SNX8] | 2.8 ± 0.76 | 2.92 ± 0.52 | – | –
MEPSPLSPSGAALPLPLSLAPPPL [ZBTB22] | 4.07 ± 0.35 | 4.11 ± 0.18 | – | –
RFIRERDRAVNDYPSLYYPEMYIL [CDC25B] | 2.49 ± 0.53 | 1.91 ± 0.29 | – | –
TLASVPPAATFGADDLVLTLSNPQ [ELF3] | 4.28 ± 0.21 | 4.25 ± 0.2 | – | –
FVETRLRDLPDTPRRFTFYPCVLA [TRIM39] | 2.63 ± 0.68 | 2.16 ± 0.071 | – | –
AELKEAVEEPSSKDVMEKREDSKE [CHGA] | 5.67 ± 0.083 | 5.61 ± 0.17 | – | –
LQTGPLLGRPDSLELQRQREARKR [RSPH3] | 4.83 ± 0.2 | 5.08 ± 0.31 | – | –
SERDSEAAKQNHVTADDFVQTSVI [EHMT1] | 5.34 ± 0.45 | 5.35 ± 0.34 | – | –
FSEEDEEETTSQDWGTPRELTFSY [RTN2] | 4.22 ± 0.15 | 4.22 ± 0.49 | – | –
NFSAAKSLLKKPDGVKESTESSNT [CAMK2D] | 5.35 ± 0.22 | 5.28 ± 0.35 | – | –
VQTWTQPRLCYLVKEGGSYGFSLK [PDZK1] | 2.13 ± 0.24 | 2 ± 0.33 | – | –
GTRYSAPANLYVRELREVRRVPPR [PTPRD] | 4.23 ± 0.23 | 3.9 ± 0.12 | – | –
TWKVLFCSMSATFTLNFFRSGIQF [CLCN6] | 3.25 ± 0.11 | 3.2 ± 0.73 | – | –
AFLLLPLPDELGSQLPQVLHVSLG [MOSPD3] | 2.96 ± 0.76 | 2.73 ± 0.49 | – | –
